Data set [1] concerns the target Soybean glycinin.
For data set [2], the target named is T1, soybean Kunitz trypsin inhibitor, P01070.
T1 chain: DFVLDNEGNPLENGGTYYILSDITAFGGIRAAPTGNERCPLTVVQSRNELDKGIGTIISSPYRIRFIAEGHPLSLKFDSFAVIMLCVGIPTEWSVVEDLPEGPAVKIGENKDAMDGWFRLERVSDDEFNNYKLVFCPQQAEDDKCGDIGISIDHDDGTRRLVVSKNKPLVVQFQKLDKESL

In data set [3] the target is T2, soybean Bowman-Birk inhibitor, P01055.
T2 chain: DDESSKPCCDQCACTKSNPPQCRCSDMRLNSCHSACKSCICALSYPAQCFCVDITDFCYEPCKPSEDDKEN

Data set [4] addresses Soybean agglutinin (SBA), P05046.
Data set [5] concerns the target Soybean beta-conglycinin.

One protein from patent US20050058747 can be followed below.

Sequence of Soybean agglutinin (SBA), P05046 (P05046 33-285): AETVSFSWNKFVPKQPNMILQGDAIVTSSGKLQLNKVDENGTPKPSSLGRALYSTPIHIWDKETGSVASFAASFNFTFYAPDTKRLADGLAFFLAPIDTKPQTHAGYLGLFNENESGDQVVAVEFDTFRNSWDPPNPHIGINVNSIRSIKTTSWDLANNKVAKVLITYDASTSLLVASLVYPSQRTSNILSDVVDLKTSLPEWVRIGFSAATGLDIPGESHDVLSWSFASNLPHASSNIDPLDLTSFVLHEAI

B1: protease of the invention having amino acids 1-188 of SEQ ID NO: 2 (protease derived from Nocardiopsis dassonvillei subsp. dassonvillei DSM 43235) (protein)
chain: ADIIGGLAYYMGGRCSVGFAATNSAGQPGFVTAGHCGTVGTGVTIGNGTGTFQNSVFPGNDAAFVRGTSNFTLTNLVSRYNSGGYQSVTGTSQAPAGSAVCRSGSTTGWHCGTIQARNQTVRYPQGTVYSLTRTNVCAEPGDSGGSFISGSQAQGVTSGGSGNCSVGGTTYYQEVTPMINSWGVRIRT
Regarding B1, the Percentage degradation of isolated soy proteins in data set [1] stood at 100%; in data set [2], 97%; in data set [3], 81%; in data set [4], 95%; in data set [5] it was 100%.
